From patent US20260027220A1, “EPHA2 BCL-XL INHIBITOR ANTIBODY-DRUG CONJUGATES AND METHODS OF USE THEREOF” (Novartis AG, priority 2022, published 2026)
Where “and” joins values, the source holds several entries; their conditions need not be identical. Equal entries are not always repeated.

B1: anti-EphA2 E152C S375C 1C1 (LC N92Q) hIgG1 (WT Heavy Chain) (antibody, V domains shown)
VH: EVQLLESGGGLVQPGGSLRLSCAASGFTFSHYMMAWVRQAPGKGLEWVSRIGPSGGPTHYADSVKGRFTISRDNSKNTLYLQMNSLRAEDTAVYYCAGYDSGYDYVAVAGPAEYFQHWGQGTLVTVSS
VL: DIQMTQSPSSLSASVGDRVTITCRASQSISTWLAWYQQKPGKAPKLLIYKASNLHTGVPSRFSGSGSGTEFSLTISGLQPDDFATYYCQQYQSYSRTFGQGTKVEIKR
notes: also called 1C1 N92Q IgG; DE-54-AX20
B2: anti-EphA2 E152C S375C 1C1 (LC G77S) hIgG1 (WT Heavy Chain) (antibody, V domains shown)
VH: EVQLLESGGGLVQPGGSLRLSCAASGFTFSHYMMAWVRQAPGKGLEWVSRIGPSGGPTHYADSVKGRFTISRDNSKNTLYLQMNSLRAEDTAVYYCAGYDSGYDYVAVAGPAEYFQHWGQGTLVTVSS
VL: DIQMTQSPSSLSASVGDRVTITCRASQSISTWLAWYQQKPGKAPKLLIYKASNLHTGVPSRFSGSGSGTEFSLTISSLQPDDFATYYCQQYNSYSRTFGQGTKVEIKR
notes: also called 1C1 G77S IgG; ZF-74-CQ11
B3: anti-EphA2_1C1_DAR4_LC_N92Q_S72T_G77S (antibody, human IgG1, kappa, V domains shown)
VH: EVQLLESGGGLVQPGGSLRLSCAASGFTFSHYMMAWVRQAPGKGLEWVSRIGPSGGPTHYADSVKGRFTISRDNSKNTLYLQMNSLRAEDTAVYYCAGYDSGYDYVAVAGPAEYFQHWGQGTLVTVSS
VL: DIQMTQSPSSLSASVGDRVTITCRASQSISTWLAWYQQKPGKAPKLLIYKASNLHTGVPSRFSGSGSGTEFTLTISSLQPDDFATYYCQQYQSYSRTFGQGTKVEIKR
B4: anti-EphA2 E152C S375C 1C1 (LC S10T_S72T_G77S) hIgG1 (WT Heavy Chain) (antibody, V domains shown)
VH: EVQLLESGGGLVQPGGSLRLSCAASGFTFSHYMMAWVRQAPGKGLEWVSRIGPSGGPTHYADSVKGRFTISRDNSKNTLYLQMNSLRAEDTAVYYCAGYDSGYDYVAVAGPAEYFQHWGQGTLVTVSS
VL: DIQMTQSPSTLSASVGDRVTITCRASQSISTWLAWYQQKPGKAPKLLIYKASNLHTGVPSRFSGSGSGTEFTLTISSLQPDDFATYYCQQYNSYSRTFGQGTKVEIKR
notes: also called 3x germ
B5: anti-EphA2 E152C S375C 1C1 (LC S93Q) hIgG1 (WT Heavy Chain) (antibody, V domains shown)
VH: EVQLLESGGGLVQPGGSLRLSCAASGFTFSHYMMAWVRQAPGKGLEWVSRIGPSGGPTHYADSVKGRFTISRDNSKNTLYLQMNSLRAEDTAVYYCAGYDSGYDYVAVAGPAEYFQHWGQGTLVTVSS
VL: DIQMTQSPSSLSASVGDRVTITCRASQSISTWLAWYQQKPGKAPKLLIYKASNLHTGVPSRFSGSGSGTEFSLTISGLQPDDFATYYCQQYNQYSRTFGQGTKVEIKR
notes: also called DA-62-QP06
B6: anti-EphA2_1C1_DAR4_LC_N92Q_G77S (antibody, human IgG1, kappa, V domains shown)
VH: EVQLLESGGGLVQPGGSLRLSCAASGFTFSHYMMAWVRQAPGKGLEWVSRIGPSGGPTHYADSVKGRFTISRDNSKNTLYLQMNSLRAEDTAVYYCAGYDSGYDYVAVAGPAEYFQHWGQGTLVTVSS
VL: DIQMTQSPSSLSASVGDRVTITCRASQSISTWLAWYQQKPGKAPKLLIYKASNLHTGVPSRFSGSGSGTEFSLTISSLQPDDFATYYCQQYQSYSRTFGQGTKVEIKR
notes: also called HE-07-PV32
B7: anti-EphA2 E152C S375C 1C1 (LC N92A) hIgG1 (WT Heavy Chain) (antibody, V domains shown)
VH: EVQLLESGGGLVQPGGSLRLSCAASGFTFSHYMMAWVRQAPGKGLEWVSRIGPSGGPTHYADSVKGRFTISRDNSKNTLYLQMNSLRAEDTAVYYCAGYDSGYDYVAVAGPAEYFQHWGQGTLVTVSS
VL: DIQMTQSPSSLSASVGDRVTITCRASQSISTWLAWYQQKPGKAPKLLIYKASNLHTGVPSRFSGSGSGTEFSLTISGLQPDDFATYYCQQYASYSRTFGQGTKVEIKR
notes: also called BC-56-WI24
B8: anti-EphA2 E152C S375C 1C1 (LC S93A) hIgG1 (WT Heavy Chain) (antibody, V domains shown)
VH: EVQLLESGGGLVQPGGSLRLSCAASGFTFSHYMMAWVRQAPGKGLEWVSRIGPSGGPTHYADSVKGRFTISRDNSKNTLYLQMNSLRAEDTAVYYCAGYDSGYDYVAVAGPAEYFQHWGQGTLVTVSS
VL: DIQMTQSPSSLSASVGDRVTITCRASQSISTWLAWYQQKPGKAPKLLIYKASNLHTGVPSRFSGSGSGTEFSLTISGLQPDDFATYYCQQYNAYSRTFGQGTKVEIKR
notes: also called HD-58-MP05
B9: anti-EphA2_1C1_DAR4_LC_N92Q_S72T (antibody, human IgG1, kappa, V domains shown)
VH: EVQLLESGGGLVQPGGSLRLSCAASGFTFSHYMMAWVRQAPGKGLEWVSRIGPSGGPTHYADSVKGRFTISRDNSKNTLYLQMNSLRAEDTAVYYCAGYDSGYDYVAVAGPAEYFQHWGQGTLVTVSS
VL: DIQMTQSPSSLSASVGDRVTITCRASQSISTWLAWYQQKPGKAPKLLIYKASNLHTGVPSRFSGSGSGTEFTLTISGLQPDDFATYYCQQYQSYSRTFGQGTKVEIKR
notes: also called HA-13-AF39
B10: anti-EphA2 E152C S375C 1C1 (LC S93V) hIgG1 (WT Heavy Chain) (antibody, V domains shown)
VH: EVQLLESGGGLVQPGGSLRLSCAASGFTFSHYMMAWVRQAPGKGLEWVSRIGPSGGPTHYADSVKGRFTISRDNSKNTLYLQMNSLRAEDTAVYYCAGYDSGYDYVAVAGPAEYFQHWGQGTLVTVSS
VL: DIQMTQSPSSLSASVGDRVTITCRASQSISTWLAWYQQKPGKAPKLLIYKASNLHTGVPSRFSGSGSGTEFSLTISGLQPDDFATYYCQQYNVYSRTFGQGTKVEIKR
notes: also called PA-62-QD06
B11: anti-EphA2 E152C S375C 1C1 (LC S72T) hIgG1 (WT Heavy Chain) (antibody, V domains shown)
VH: EVQLLESGGGLVQPGGSLRLSCAASGFTFSHYMMAWVRQAPGKGLEWVSRIGPSGGPTHYADSVKGRFTISRDNSKNTLYLQMNSLRAEDTAVYYCAGYDSGYDYVAVAGPAEYFQHWGQGTLVTVSS
VL: DIQMTQSPSSLSASVGDRVTITCRASQSISTWLAWYQQKPGKAPKLLIYKASNLHTGVPSRFSGSGSGTEFTLTISGLQPDDFATYYCQQYNSYSRTFGQGTKVEIKR
notes: also called 1C1 S72T IgG; FE-76-NO13

Tests used:
[1] = target: T1, human EphA2 ectodomain (human, UniProt P29317 24-537); assay: SPR (Biacore 8k), Fab-capture, 37C, 1:1 model;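 also: Anti-EphA2 IgG captured via immobilized anti-Fab, soluble EphA2 ectodomain as analyte at six twofold dilutions from 50 nM, HBS-EP+ pH 7.6 running buffer, double reference subtraction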
T1 construct: Soluble ectodomain used as the SPR analyte
T1 sequence (P29317 24-537 limits assumed): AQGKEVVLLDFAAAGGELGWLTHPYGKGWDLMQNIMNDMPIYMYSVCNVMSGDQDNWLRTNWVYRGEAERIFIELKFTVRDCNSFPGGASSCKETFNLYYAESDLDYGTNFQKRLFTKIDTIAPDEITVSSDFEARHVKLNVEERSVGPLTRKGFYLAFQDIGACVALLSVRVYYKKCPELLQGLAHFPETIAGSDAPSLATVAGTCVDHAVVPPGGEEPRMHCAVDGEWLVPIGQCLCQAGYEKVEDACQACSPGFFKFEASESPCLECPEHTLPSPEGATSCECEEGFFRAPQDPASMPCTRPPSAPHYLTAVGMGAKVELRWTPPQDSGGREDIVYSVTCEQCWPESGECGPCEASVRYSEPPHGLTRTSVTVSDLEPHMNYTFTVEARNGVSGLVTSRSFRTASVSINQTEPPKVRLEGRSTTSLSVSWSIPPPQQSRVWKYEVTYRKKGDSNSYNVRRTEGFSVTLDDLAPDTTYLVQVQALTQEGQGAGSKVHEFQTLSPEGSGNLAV
Procedure: (§1) A human Fab capture method was utilized in order to determine kinetics for the antibodies. […] Each channel has two flow cells. The reference flow cell contained only immobilized anti-Fab, whereas the reaction flow cell captured anti-EphA2 IgG through anti-Fab. HBS-EP+ Buffer, pH 7.6 was used as the running buffer. The soluble human, mouse and cyno EphA2 ectodomain flowed over both flow cells on 8 channels. The EphA2 ectodomain concentration started at 50 nM and was serially diluted at one part to one part (1:1) in the running buffer for six concentrations. The analysis chamber was kept at 37° C. Regeneration was performed at the end of each sample washing with the solution of 10 mM Glycine-HCl, pH 2.1 provided in the kit.
(§2) The data were analysed using the Biacore Insight Evaluation Software. Double reference subtraction was completed to generate the final data. The raw data was fitted to a 1:1 binding model, with parameter(s) Rₘₐₓ set to local.

[2] = target: T2, mouse EphA2 ectodomain (mouse, UniProt Q03145 26-538); assay: SPR (Biacore 8k), Fab-capture, 37C, 1:1 model;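 also: Anti-EphA2 IgG captured via immobilized anti-Fab, soluble EphA2 ectodomain as analyte at six twofold dilutions from 50 nM, HBS-EP+ pH 7.6 running buffer, double reference subtraction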
T2 construct: extracellular domain
T2 sequence (Q03145 26-538): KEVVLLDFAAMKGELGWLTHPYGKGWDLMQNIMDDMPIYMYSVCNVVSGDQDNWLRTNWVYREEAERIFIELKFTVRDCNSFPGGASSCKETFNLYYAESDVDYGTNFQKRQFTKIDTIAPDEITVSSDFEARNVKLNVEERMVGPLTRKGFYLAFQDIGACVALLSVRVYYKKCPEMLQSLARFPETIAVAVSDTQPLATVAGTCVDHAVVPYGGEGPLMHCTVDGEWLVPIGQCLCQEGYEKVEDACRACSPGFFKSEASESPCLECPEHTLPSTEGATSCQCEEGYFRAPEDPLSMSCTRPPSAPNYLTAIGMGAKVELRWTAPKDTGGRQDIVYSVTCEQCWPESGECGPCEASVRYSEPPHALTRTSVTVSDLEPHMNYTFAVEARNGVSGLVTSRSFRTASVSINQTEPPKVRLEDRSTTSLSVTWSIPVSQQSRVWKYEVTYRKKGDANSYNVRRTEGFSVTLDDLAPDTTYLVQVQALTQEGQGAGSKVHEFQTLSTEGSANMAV
Procedure: as §1, §2

[3] = target: T3, cyno EphA2 ectodomain (cyno, UniProt Q1KL86 25-537); assay: SPR (Biacore 8k), Fab-capture, 37C, 1:1 model;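 also: Anti-EphA2 IgG captured via immobilized anti-Fab, soluble EphA2 ectodomain as analyte at six twofold dilutions from 50 nM, HBS-EP+ pH 7.6 running buffer, double reference subtraction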
T3 construct: extracellular domain
T3 sequence (Q1KL86 25-537): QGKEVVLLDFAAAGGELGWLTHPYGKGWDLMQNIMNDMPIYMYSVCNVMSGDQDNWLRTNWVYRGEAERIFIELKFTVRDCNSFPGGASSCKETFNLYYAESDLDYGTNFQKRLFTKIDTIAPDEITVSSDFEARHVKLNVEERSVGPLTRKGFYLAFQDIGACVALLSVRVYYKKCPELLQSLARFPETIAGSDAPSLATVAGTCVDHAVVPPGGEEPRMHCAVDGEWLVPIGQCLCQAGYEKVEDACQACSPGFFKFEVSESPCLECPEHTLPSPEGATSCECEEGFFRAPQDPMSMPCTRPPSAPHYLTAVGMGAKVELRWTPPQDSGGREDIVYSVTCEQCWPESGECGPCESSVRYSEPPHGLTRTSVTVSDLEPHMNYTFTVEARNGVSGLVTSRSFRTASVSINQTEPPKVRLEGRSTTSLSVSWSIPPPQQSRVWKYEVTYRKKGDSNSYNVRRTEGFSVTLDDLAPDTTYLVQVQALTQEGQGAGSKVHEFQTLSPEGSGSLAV
Procedure: as §1, §2

[4] = target: T4, human EphA2 expressed on HKB-11 cells (human, UniProt P29317 24-976); assay: KinExA avid equilibrium KD on cells, average of replicates
T4 construct: The HKB-11 cells were transduced to overexpress EphA2; also called HKB-11 EphA2+ cell line
T4 sequence (P29317 24-976 limits assumed): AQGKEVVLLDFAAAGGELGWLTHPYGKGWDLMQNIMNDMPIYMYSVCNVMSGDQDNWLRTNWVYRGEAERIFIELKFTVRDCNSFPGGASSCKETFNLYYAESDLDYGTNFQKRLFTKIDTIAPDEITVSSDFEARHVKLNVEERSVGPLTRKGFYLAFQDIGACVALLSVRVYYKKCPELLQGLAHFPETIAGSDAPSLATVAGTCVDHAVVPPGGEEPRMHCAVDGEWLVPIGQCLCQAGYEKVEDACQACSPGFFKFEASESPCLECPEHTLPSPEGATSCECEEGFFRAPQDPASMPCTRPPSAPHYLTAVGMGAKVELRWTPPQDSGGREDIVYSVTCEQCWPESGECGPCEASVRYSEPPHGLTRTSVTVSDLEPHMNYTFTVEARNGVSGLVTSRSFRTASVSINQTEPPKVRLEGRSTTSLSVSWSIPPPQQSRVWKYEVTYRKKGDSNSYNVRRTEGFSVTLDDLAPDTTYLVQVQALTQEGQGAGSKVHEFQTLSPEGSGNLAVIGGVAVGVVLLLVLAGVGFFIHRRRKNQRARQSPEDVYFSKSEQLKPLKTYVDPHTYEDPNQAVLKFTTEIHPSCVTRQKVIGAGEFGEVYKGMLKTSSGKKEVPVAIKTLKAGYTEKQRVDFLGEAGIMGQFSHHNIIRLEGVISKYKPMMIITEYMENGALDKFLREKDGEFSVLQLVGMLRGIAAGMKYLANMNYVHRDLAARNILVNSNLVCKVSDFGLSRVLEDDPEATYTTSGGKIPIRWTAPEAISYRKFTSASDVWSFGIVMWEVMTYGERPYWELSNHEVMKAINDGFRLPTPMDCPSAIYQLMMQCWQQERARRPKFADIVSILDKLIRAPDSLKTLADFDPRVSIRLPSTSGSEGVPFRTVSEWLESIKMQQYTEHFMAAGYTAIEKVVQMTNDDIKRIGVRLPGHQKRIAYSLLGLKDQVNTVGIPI
Procedure: (§3) Free antibody in equilibrium titration reactions were measured by KinExA using a KinExA 3200, Autosampler (Sapidyne). Data were analyzed using KinExA Pro 4-5-X (Sapidyne).
(§4) Anti-EphA2 antibody was diluted in PBS with 10% HI-FBS and 0.04% sodium azide to 2× the final concentration of binding sites needed for equilibrium titration. […] Cells and antibody were combined 1:1 in an eppendorf tube and incubated overnight, 4° C., rotating. Buffer and antibody alone samples were included. Cells were pelleted and supernatants were transferred to a 2 ml 96-well deep well plate covered with pierceable film.
Data were analyzed by n-Curve Analysis.

[5] = target: T4, human EphA2 expressed on HKB-11 cells; assay: KinExA apparent (avid) equilibrium KD on human EphA2 HKB-11 cells
Procedure: as §3, §4
Data were analyzed by n-Curve Analysis.

[6] = target: T4, human EphA2 expressed on HKB-11 cells; assay: flow cytometry on HKB-11 cells overexpressing EphA2; lot DE-54-AX20
Procedure: (§5) The binding affinity of EphA2 antibodies on cells was evaluated using flow cytometry (FACS). […] Cell lines were cultured in media that is optimal for their growth at 5% CO₂, 37° C. in a tissue culture incubator. Cell viability and cell density were determined using a cell counter (Vi-Cell XR Cell Viability Analyzer, Beckman Coulter). […] All subsequent steps were performed on ice and in ice cold FACS buffer to prevent internalization of the receptor. Cells were resuspended in 100 μL of FACS buffer containing an 11-point serial dilution of test antibodies at final concentrations of 200 nM-0.003 nM. Cells were incubated at 4° C. for 45 minutes. Following incubation, cells were washed three times in ice cold PBS at 1000 rpm for 5 minutes with 200 μL FACS buffer. […] Cells were incubated in the dark at 4° C. for 45 minutes. Following incubation, cells were washed three times in ice cold PBS at 1000 rpm for 5 minutes with 200 μL FACS buffer. Cells were then resuspended in 100 μL FACS buffer containing DAPI (ThermoFisher, #D1306) staining followed by readout via flow cytometry (MACSQuant® Analyzer 10). Data was analyzed using FlowJo v10.8.1 to obtain MFI (Mean Fluorescence Intensity) on live cells. EC₅₀ values were calculated using the GraphPad Prism 9 software. There were three rounds of experiments performed to evaluate three groupings of EphA2 antibodies. […]

[7] = target: T4, human EphA2 expressed on HKB-11 cells; assay: flow cytometry on HKB-11 cells overexpressing EphA2; lot VE-39-AK34
Procedure: as §5

[8] = target: T4, human EphA2 expressed on HKB-11 cells; assay: flow cytometry on HKB-11 cells overexpressing EphA2; lot ZE-39-AG34
Procedure: as §5

[9] = target: T4, human EphA2 expressed on HKB-11 cells; assay: flow cytometry on HKB-11 cells overexpressing EphA2; lot ZF-74-CQ11
Procedure: as §5

[10] = target: T4, human EphA2 expressed on HKB-11 cells; assay: flow cytometry on HKB-11 cells overexpressing EphA2; lot PE-07-PN32
Procedure: as §5

[11] = target: T1, human EphA2 ectodomain; assay: SPR (Biacore 8k), Fab-capture, 37C, 1:1 model; *low binding signal;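 as to koff: Anti-EphA2 IgG captured via immobilized anti-Fab, soluble EphA2 ectodomain as analyte at six twofold dilutions from 50 nM, HBS-EP+ pH 7.6 running buffer, double reference subtraction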
Procedure: as §1, §2

[12] = target: T2, mouse EphA2 ectodomain; assay: as above
Procedure: as §1, §2

[13] = target: T3, cyno EphA2 ectodomain; assay: as above
Procedure: as §1, §2

[14] = target: T4, human EphA2 expressed on HKB-11 cells; assay: flow cytometry on HKB-11 cells overexpressing EphA2; lot DC-69-ID09
Procedure: as §5

[15] = target: T4, human EphA2 expressed on HKB-11 cells; assay: flow cytometry on HKB-11 cells overexpressing EphA2; lot DA-62-QP06
Procedure: as §5

[16] = target: T4, human EphA2 expressed on HKB-11 cells; assay: flow cytometry on HKB-11 cells overexpressing EphA2; lot HE-07-PV32
Procedure: as §5

[17] = target: T2, mouse EphA2 ectodomain; assay: SPR (Biacore 8k), Fab-capture, 37C
Procedure: as §1, §2

[18] = target: T3, cyno EphA2 ectodomain; assay: SPR (Biacore 8k), Fab-capture, 37C
Procedure: as §1, §2

[19] = target: T4, human EphA2 expressed on HKB-11 cells; assay: flow cytometry on HKB-11 cells overexpressing EphA2; lot HD-58-MP05
Procedure: as §5

[20] = target: T4, human EphA2 expressed on HKB-11 cells; assay: flow cytometry on HKB-11 cells overexpressing EphA2; lot HA-13-AF39
Procedure: as §5

[21] = target: T4, human EphA2 expressed on HKB-11 cells; assay: flow cytometry on HKB-11 cells overexpressing EphA2; lot PA-62-QD06
Procedure: as §5

[22] = target: T4, human EphA2 expressed on HKB-11 cells; assay: flow cytometry on HKB-11 cells overexpressing EphA2; lot DE-39-AD34
Procedure: as §5

[23] = target: T4, human EphA2 expressed on HKB-11 cells; assay: flow cytometry on HKB-11 cells overexpressing EphA2; lot FE-76-NO13
Procedure: as §5

Binder	Kd [1]	koff [1]	kon [1]	Kd [2]	koff [2]	kon [2]	Kd [3]	koff [3]	kon [3]	Kd [5]	other results
B1	196 nM	0.0531 s⁻¹	271000 M⁻¹ s⁻¹	385 nM	0.0661 s⁻¹	172000 M⁻¹ s⁻¹	230 nM	0.0719 s⁻¹	313000 M⁻¹ s⁻¹	0.089 nM and 0.138 nM	Kd [4]: 0.114 nM; EC50 [6]: 3.83 nM; EC50 [7]: 1.95 nM
B2	186 nM			369 nM			222 nM			0.171 nM	EC50 [8]: 2.21 nM; EC50 [9]: 3.73 nM
B3										0.124 nM and 0.134 nM	Kd [4]: 0.129 nM; EC50 [10]: 1.81 nM
B4		0.0996 s⁻¹	250000 M⁻¹ s⁻¹		0.0635 s⁻¹	193000 M⁻¹ s⁻¹		0.121 s⁻¹	886000 M⁻¹ s⁻¹		Kd [11]: 398 nM; Kd [12]: 328 nM; Kd [13]: 137 nM; EC50 [14]: 23.9 nM
B5	237 nM	0.0635 s⁻¹	268000 M⁻¹ s⁻¹	335 nM	0.0552 s⁻¹	165000 M⁻¹ s⁻¹	272 nM	0.338 s⁻¹	1.24e+06 M⁻¹ s⁻¹		EC50 [15]: 2.13 nM
B6											EC50 [16]: 2.59 nM
B7											binding result [17]: no binding (tested: EphA2 ectodomain titrated from 50 nM); binding result [18]: no binding (tested: EphA2 ectodomain titrated from 50 nM)
B8	265 nM	0.131 s⁻¹	493000 M⁻¹ s⁻¹	343 nM	0.0625 s⁻¹	182000 M⁻¹ s⁻¹	259 nM	0.181 s⁻¹	697000 M⁻¹ s⁻¹		EC50 [19]: 3.44 nM
B9											EC50 [20]: 1.8 nM
B10		0.0792 s⁻¹	296000 M⁻¹ s⁻¹	286 nM	0.0508 s⁻¹	178000 M⁻¹ s⁻¹		0.105 s⁻¹	428000 M⁻¹ s⁻¹		Kd [11]: 268 nM; Kd [13]: 246 nM; EC50 [21]: 20.2 nM
B11	216 nM	0.0518 s⁻¹	240000 M⁻¹ s⁻¹	377 nM	0.0512 s⁻¹	136000 M⁻¹ s⁻¹	230 nM	0.17 s⁻¹	737000 M⁻¹ s⁻¹	0.132 nM and 0.143 nM	Kd [4]: 0.137 nM; EC50 [22]: 2.12 nM; EC50 [23]: 3.19 nM
